Source: patent US12324447B2, “Animal feed compositions and uses thereof” (priority 2015, dated 2025)
Entries after “also recorded” stand apart in the source; their conditions may differ. Where two headings read alike, the source gives them in different places. Marks after values point to notes of the source that are not given here.

Assays:
[1] = In vivo piglet trial (growth performance); parameters: species or system weaned piglets (Large-White x Redon); details: for ADFI (g/d), Mean / ADWG (g/d), Mean / FCR, Mean: SEQ ID NO: 257 50 mg/kg feed, VevoVital 5000 mg/kg feed; for ADFI, % relative NC / ADWG, % relative NC / FCR, % relative NC: relative to negative control
[2] = system: Micrococcus lysodeikticus ATTC No. 4698; experiment: Lysozyme activity turbidity assay (optical density drop at 540 nm)
[3] = system: Clostridium perfringens DSM756; type: cell-based; details: for Diameter of clearing zone (mm): lysozymes 100 μg/ml, Bacitracin zinc salt 50 μg/ml
[4] = Thermostability by Differential Scanning Calorimetry (DSC); type: physicochemical; details: 50 mM Na-acetate, DSC 200 K/hour
[5] = system: M. lysodeikticus substrate; experiment: Temperature stability: residual activity by OD drop after heat treatment; details: for Residual activity (%): OD drop pH 6
[6] = system: Exiguobacterium undea (DSM14481); experiment: Lysozyme activity turbidity assay (optical density drop at 540 nm); type: biochemical, Exiguobacterium undae
[7] = In vivo broiler trial (growth performance)
[8] = Finisher (d 36-42), SEQ ID NO: 257 25 mg/kg feed, Avilamycin 10 mg/kg
[9] = Finisher (d 36-42), relative to unsupplemented control
[10] = Grower (d 22-36), SEQ ID NO: 257 25 mg/kg feed, Avilamycin 10 mg/kg
[11] = Grower (d 22-36), relative to unsupplemented control
[12] = Starter (d 1-22), SEQ ID NO: 257 25 mg/kg feed, Avilamycin 10 mg/kg
[13] = Starter (d 1-22), relative to unsupplemented control
[14] = Whole period (day 1 to day 42), SEQ ID NO: 257 25 mg/kg feed, Avilamycin 10 mg/kg
[15] = Whole period, relative to unsupplemented control

B1: SEQ ID NO: 257: mature GH24 lysozyme from Trichophaea saccata, comprising a GH24 domain and a lysozyme enhancing domain (LED) (protein, listed as Trichophaea saccata)
chain: YPVKTDLHCRSSPSTSASIVRTYSSGTEVQIQCQTTGTSVQGSNVWDKTQHGCYVADYYVKTGHSGIFTTKCGSSSGGGSCKPPPINAATVALIKEFEGFVPKPAPDPIGLPTVGYGHLCKTKGCKEVPYSFPLTQETATKLLQSDIKTFTSCVSNYVKDSVKLNDNQYGALASWAFNVGCGNVQTSSLIKRLNAGENPNTVAAQELPKWKYAGGKVMPGLVRRRNAEVALFKKPSSVQAHPPKC
modifications: mat_peptide (1)..(245)
ADFI (g/d), Mean ([1]; day 0-14): 333 g/day | ADWG (g/d), Mean ([1]; day 0-14): 265 g/day | FCR, Mean ([1]; day 0-14): 1.272^b | ADFI, % relative NC ([1]; day 0-14): 92.5% | ADWG, % relative NC ([1]; day 0-14): 91.4% | FCR, % relative NC ([1]; day 0-14): 102.6% | ADFI (g/d), Mean ([1]; day 0-42): 740^b g/d | ADWG (g/d), Mean ([1]; day 0-42): 538 g/day | FCR, Mean ([1]; day 0-42): 1.379^a | ADFI, % relative NC ([1]; day 0-42): 100.8% | ADWG, % relative NC ([1]; day 0-42): 107.8% | FCR, % relative NC ([1]; day 0-42): 92.9% | ADFI (g/d), Mean ([1]; day 14-42): 944^c g/d | ADWG (g/d), Mean ([1]; day 14-42): 674 g/day | FCR, Mean ([1]; day 14-42): 1.404^a | ADFI, % relative NC ([1]; day 14-42): 101.5% | ADWG, % relative NC ([1]; day 14-42): 111.8% | FCR, % relative NC ([1]; day 14-42): 90.9% | Improvement on FCR compared to the negative control ([1]; overall period (day 0 to day 42), lysozyme 50 mg/kg, VevoVital 5000 mg/kg): 7.1% | Improvement of ADWG compared to NC ([1]; starter period (days 14-42)): 11.8% | Improvement to FCR compared to NC ([1]; starter period, from day 15 to day 42, SEQ ID NO: 257 50 mg/kg, VevoVital (PC)): 9.1% | Improvement of ADWG compared to NC ([1]; whole period (day 0 to day 42)): 7.8% | Lysozyme activity against Micrococcus lysodeikticus (in words) ([2]; OD drop assay): good activity | Lysozyme Activity against Micrococcus lysodeikticus as measured by Optical Density Drop ([2]; assay pH 6): ++ | Diameter of clearing zone (mm) ([3]; Experiment 1, 1/2 MHB pH 6): 11 mm | Diameter of clearing zone (mm) ([3]; Experiment 1, 1/10 MHB pH 7): 9 mm | Diameter of clearing zone (mm) ([3]; Experiment 2, 1/10 MHB pH 7): 8 mm | Antimicrobial activity against Clostridium perfringens (in words) ([3]; RDA, tested conditions (1/10 MHB pH 7 and 1/2 MHB pH 6)): significant activity; also recorded: showed antimicrobial activity | Denaturation Temperature Td (° C.) ([4]; pH 4.5): 70.0 °C | Denaturation Temperature Td (° C.) ([4]; pH 5.5): 70.8 °C | Denaturation Temperature Td (° C.) ([4]; pH 6.5): 69.7 °C | Time for which the lysozyme is stable ([5]; at temperatures as high as 99° C.): at least 90 seconds | Residual activity (%) ([5]; heat treatment 30 sec at 60 °C): 93% | Residual activity (%) ([5]; heat treatment 30 sec at 65 °C): 99% | Residual activity (%) ([5]; heat treatment 30 sec at 70 °C): 94% | Residual activity (%) ([5]; heat treatment 30 sec at 75 °C): 101% | Residual activity (%) ([5]; heat treatment 30 sec at 80 °C): 94% | Residual activity (%) ([5]; heat treatment 30 sec at 85 °C): 98% | Residual activity (%) ([5]; heat treatment 30 sec at 90 °C): 94% | Residual activity (%) ([5]; heat treatment 30 sec at 95 °C): 98% | Residual activity (%) ([5]; heat treatment 30 sec at 99 °C): 93% | Residual activity (%) ([5]; heat treatment 60 sec at 60 °C): 99% | Residual activity (%) ([5]; heat treatment 60 sec at 65 °C): 97% | Residual activity (%) ([5]; heat treatment 60 sec at 70 °C): 93% | Residual activity (%) ([5]; heat treatment 60 sec at 75 °C): 96% | Residual activity (%) ([5]; heat treatment 60 sec at 80 °C): 98% | Residual activity (%) ([5]; heat treatment 60 sec at 85 °C): 94% | Residual activity (%) ([5]; heat treatment 60 sec at 90 °C): 99% | Residual activity (%) ([5]; heat treatment 60 sec at 95 °C): 94% | Residual activity (%) ([5]; heat treatment 60 sec at 99 °C): 97% | Residual activity (%) ([5]; heat treatment 90 sec at 60 °C): 96% | Residual activity (%) ([5]; heat treatment 90 sec at 65 °C): 99% | Residual activity (%) ([5]; heat treatment 90 sec at 70 °C): 98% | Residual activity (%) ([5]; heat treatment 90 sec at 75 °C): 98% | Residual activity (%) ([5]; heat treatment 90 sec at 80 °C): 97% | Residual activity (%) ([5]; heat treatment 90 sec at 85 °C): 100% | Residual activity (%) ([5]; heat treatment 90 sec at 90 °C): 97% | Residual activity (%) ([5]; heat treatment 90 sec at 95 °C): 102% | Residual activity (%) ([5]; heat treatment 90 sec at 99 °C): 89% | Lysozyme activity against Exiguobacterium undea (in words) ([6]; OD drop assay): good activity | Lysozyme Activity against Exiguobacterium undae as measured by Optical Density Drop ([6]; assay pH 6): ++ | FCR [7, 8]: 1.919 | Feed intake (g/b) [7, 8]: 1524 g/b | Weight gain (g/b) [7, 8]: 800 g/b | FCR, Relative to C (%) [7, 9]: 97.9% | Feed intake, Relative to C (%) [7, 9]: 102.5% | Weight gain, Relative to C (%) [7, 9]: 105.1% | FCR [7, 10]: 1.714 | Feed intake (g/b) [7, 10]: 2336 g/b | Weight gain (g/b) [7, 10]: 1364 g/b | FCR, Relative to C (%) [7, 11]: 99.5% | Feed intake, Relative to C (%) [7, 11]: 102.2% | Weight gain, Relative to C (%) [7, 11]: 102.7% | FCR [7, 12]: 1.414 | Feed intake (g/b) [7, 12]: 1603 g/b | Weight gain (g/b) [7, 12]: 1133 g/b | FCR, Relative to C (%) [7, 13]: 98.1% | Feed intake, Relative to C (%) [7, 13]: 101.6% | Weight gain, Relative to C (%) [7, 13]: 103.4% | EPEF [7, 14]: 425 | FCR [7, 14]: 1.657 | Feed intake (g/b) [7, 14]: 5450 g/b | Motality [7, 14]: 10.0 | Weight gain (g/b) [7, 14]: 3290 g/b | EPEF, Relative to C (%) [7, 15]: 101.7% | FCR, Relative to C (%) [7, 15]: 98.6% | Feed intake, Relative to C (%) [7, 15]: 101.9% | Weight gain, Relative to C (%) [7, 15]: 103.3% | EPEF improvement compared to NC diet ([7]; whole period, GH24 lysozyme 25 mg/kg): 1.7% | FCR improvement compared to NC diet ([7]; whole period, GH24 lysozyme 25 mg/kg, Avilamycin 10 mg/kg): 1.4%
